Source: the RNAGym collection of RNA variant scans (doi:10.1073/pnas.2313332121)
Fewer inactive variants are shown than the library holds.

B1: TPR 5TU (parent)
chain: GGAUCUUCUCGAUCUAACAAAAAAGACAAAUCUGCCACAAAGCUUGAGAGCAUCUUCGGAUGCAGAGGCGGCAGCCUUCGGUGGCGCGAUAGCGCCAACGUUCUCAACUAUGACACGCAAAACGCGUGCUCCGUUGAAUGGAGUUUAUCAUG

Variants of: B1
Experiment: polymerase ribozyme fitness, log enrichment relative to wild type (log ratio); higher = more active; in vitro selection for triplet polymerase activity
Summary of the method: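 To select mutant libraries of each subunit of a heterodimeric triplet polymerase ribozyme, built by PCR and transcribed, each was annealed with a biotinylated primer, partner subunit and triplets, then incubated frozen at −7 °C. Extended constructs were gel-excised, captured on streptavidin beads and amplified by RT-PCR, in one round carried out in triplicate. Illumina sequencing of input and output libraries kept genotypes with ≥10 input reads and ≥1 read per output. Fitness is the base-2 logarithm of genotype enrichment relative to wild-type enrichment, from inverse-variance-weighted replicate averages.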
In the case of A40U A47C A89U U134G, the “polymerase ribozyme fitness (log ratio)” value is reported as -2.3.
For A41C U61A A138U, the “polymerase ribozyme fitness (log ratio)” value was -3.7.
In the case of A41G G143U, the “polymerase ribozyme fitness (log ratio)” value is reported as -1.73.
In the case of A41U A52G U55A C69A G86U, the “polymerase ribozyme fitness (log ratio)” value is reported as -3.96.
For A41C A47C U56A C85U, the “polymerase ribozyme fitness (log ratio)” value was -1.41.
In the case of A40U C54A C87U A89C, the “polymerase ribozyme fitness (log ratio)” value is reported as -2.61.
With A41C G59U C87U A120U A122C G124U U146C the “polymerase ribozyme fitness (log ratio)” value was -2.2.
With A40U U55A U101C A120C the “polymerase ribozyme fitness (log ratio)” value was -0.406.
With A40U G48C C85G C99A G143A the “polymerase ribozyme fitness (log ratio)” value was at most -4.2.
In the case of A41G C54G G84A U148C, the “polymerase ribozyme fitness (log ratio)” value is reported as -3.53.
For A41C G59C C75U G83C, the “polymerase ribozyme fitness (log ratio)” value was -2.72.
For A40U G94U G136C, the “polymerase ribozyme fitness (log ratio)” value was -4.02.
In the case of A40G G94C, the “polymerase ribozyme fitness (log ratio)” value is reported as -1.82.
For A41G C54G U104A A119G G126U, the “polymerase ribozyme fitness (log ratio)” value was -1.16.
For A41C C85U C87U G133C G143A, the “polymerase ribozyme fitness (log ratio)” value was -4.18.
For A40U G48C C69G C85U, the “polymerase ribozyme fitness (log ratio)” value was -1.48.
For A40U C54U A97U C99U, the “polymerase ribozyme fitness (log ratio)” value was -2.64.
In the case of A41C C57U C96U, the “polymerase ribozyme fitness (log ratio)” value is reported as -0.458.
With A41U A52C A98U the “polymerase ribozyme fitness (log ratio)” value was -2.65.
For A41G G84A A89G C103G, the “polymerase ribozyme fitness (log ratio)” value was -3.2.
In the case of A40U A98G, the “polymerase ribozyme fitness (log ratio)” value is reported as -0.242.
For A41G G58C U61C U82G C87G U104G C118G G141U, the “polymerase ribozyme fitness (log ratio)” value was at most -4.2.
With A41C U55A G133A the “polymerase ribozyme fitness (log ratio)” value was at most -4.2.
For A41C C54A A91C U104G U127A G140U U151C, the “polymerase ribozyme fitness (log ratio)” value was at most -4.2.
For A41G G88U C131G, the “polymerase ribozyme fitness (log ratio)” value was at most -4.2.
With A40U G50C C85G C99U A137U U148G the “polymerase ribozyme fitness (log ratio)” value was at most -4.2.
In the case of A41U C54A G59A C85G, the “polymerase ribozyme fitness (log ratio)” value is reported as -3.6.
For A41U A49G A52C G84A C103G A115U, the “polymerase ribozyme fitness (log ratio)” value was at most -4.2.
For A40G U90G C95A G112C U127C, the “polymerase ribozyme fitness (log ratio)” value was at most -4.2.
With A41C U45A G68A C85A C118G C129U U144C U146A the “polymerase ribozyme fitness (log ratio)” value was at most -4.2.
In the case of A40G G86A C95U C103G C108U C125G, the “polymerase ribozyme fitness (log ratio)” value is reported as at most -4.2.
With A41C G58A G68A U104C A113C A147C the “polymerase ribozyme fitness (log ratio)” value was at most -4.2.
In the case of A41C C93U C105U, the “polymerase ribozyme fitness (log ratio)” value is reported as -1.68.
With A40U G62A C131G G136A the “polymerase ribozyme fitness (log ratio)” value was -3.43.
For A40U G92C U102C C103G A113G C132G U146C G152U, the “polymerase ribozyme fitness (log ratio)” value was at most -4.2.
In the case of A41C G94C, the “polymerase ribozyme fitness (log ratio)” value is reported as -1.8.
With A41C A49C G50U C51A G92C A106G the “polymerase ribozyme fitness (log ratio)” value was at most -4.2.
In the case of A41C G86U A89G G140A, the “polymerase ribozyme fitness (log ratio)” value is reported as at most -4.2.
With A41C C57A C96U U134C the “polymerase ribozyme fitness (log ratio)” value was -0.224.
With A40G G59A C93A the “polymerase ribozyme fitness (log ratio)” value was -4.07.
With A40G G81A G88C the “polymerase ribozyme fitness (log ratio)” value was at most -4.2.
In the case of A40U G88C U101G, the “polymerase ribozyme fitness (log ratio)” value is reported as at most -4.2.
For A41C G80A C87A, the “polymerase ribozyme fitness (log ratio)” value was at most -4.2.
For A41C G152U, the “polymerase ribozyme fitness (log ratio)” value was -2.69.
With A40G G70C C85A the “polymerase ribozyme fitness (log ratio)” value was at most -4.2.
For A41C A60G G92A A106U, the “polymerase ribozyme fitness (log ratio)” value was -3.98.
For A41C A49G U82A A91G, the “polymerase ribozyme fitness (log ratio)” value was at most -4.2.
In the case of A40U C54A A110G A120U, the “polymerase ribozyme fitness (log ratio)” value is reported as -4.07.
In the case of A40U U82G G92A, the “polymerase ribozyme fitness (log ratio)” value is reported as -2.82.
In the case of A41G C93A G124U, the “polymerase ribozyme fitness (log ratio)” value is reported as -1.5.
In the case of A41C C57G, the “polymerase ribozyme fitness (log ratio)” value is reported as -1.09.
In the case of A40U A52G C132G, the “polymerase ribozyme fitness (log ratio)” value is reported as -3.47.
In the case of A41G C75G G92C U146A, the “polymerase ribozyme fitness (log ratio)” value is reported as at most -4.2.
In the case of A41C U77C G80A U102C U144G, the “polymerase ribozyme fitness (log ratio)” value is reported as at most -4.2.
In the case of A41G G48A C87A U148C, the “polymerase ribozyme fitness (log ratio)” value is reported as at most -4.2.
With A40U A41C C96U the “polymerase ribozyme fitness (log ratio)” value was -0.566.
With A41G G88A G143A the “polymerase ribozyme fitness (log ratio)” value was at most -4.2.
For A41C U53C G81C C114A A115U C123G, the “polymerase ribozyme fitness (log ratio)” value was at most -4.2.
In the case of A41C U61A G143C, the “polymerase ribozyme fitness (log ratio)” value is reported as -3.94.
For A41G U146G, the “polymerase ribozyme fitness (log ratio)” value was -0.0573.
In the case of A40U A41C A49G C96A, the “polymerase ribozyme fitness (log ratio)” value is reported as -1.32.
For A40U A49C, the “polymerase ribozyme fitness (log ratio)” value was at most -4.2.
In the case of A40U G84A, the “polymerase ribozyme fitness (log ratio)” value is reported as -0.341.
For A41G A49U G59U C85A C105U A106G A121U U134C, the “polymerase ribozyme fitness (log ratio)” value was at most -4.2.
For A41G C85A U101G, the “polymerase ribozyme fitness (log ratio)” value was -1.82.
With A40G U53G A73G G81U G94A the “polymerase ribozyme fitness (log ratio)” value was at most -4.2.
For A40U G62U C72G G80C U82C A138U, the “polymerase ribozyme fitness (log ratio)” value was at most -4.2.
With A41U C76A the “polymerase ribozyme fitness (log ratio)” value was -1.99.
For A40U A122C, the “polymerase ribozyme fitness (log ratio)” value was 0.0565.
In the case of A40U A106G, the “polymerase ribozyme fitness (log ratio)” value is reported as 0.3.
In the case of A41G C51U A89C C95A U135C U148A, the “polymerase ribozyme fitness (log ratio)” value is reported as at most -4.2.
For A40U G62A C95U U104C G133C, the “polymerase ribozyme fitness (log ratio)” value was -3.3.
For A41G G42A G48C C93A A106C U109C A137C, the “polymerase ribozyme fitness (log ratio)” value was at most -4.2.
In the case of A41C C75U C87A U148A, the “polymerase ribozyme fitness (log ratio)” value is reported as at most -4.2.
With A41C G58A the “polymerase ribozyme fitness (log ratio)” value was 0.163.
For A41G U78C C116G, the “polymerase ribozyme fitness (log ratio)” value was 0.0342.
With A41C G59A G94A A119C the “polymerase ribozyme fitness (log ratio)” value was -1.52.
In the case of A41C G81U G86U U104C, the “polymerase ribozyme fitness (log ratio)” value is reported as -1.73.
In the case of A41C A47U G59U U61A G70C G84U C125A, the “polymerase ribozyme fitness (log ratio)” value is reported as at most -4.2.
For A41C G83U G124U, the “polymerase ribozyme fitness (log ratio)” value was -0.893.
With A41C C99G the “polymerase ribozyme fitness (log ratio)” value was -0.603.
In the case of A41C A52G G58A, the “polymerase ribozyme fitness (log ratio)” value is reported as -1.39.
With A41C A47C C96U C103U A115G the “polymerase ribozyme fitness (log ratio)” value was -3.11.
